Reference: IntAct's records for PubMed 30260988

B1: CXXC motif containing zinc binding protein (Homo sapiens), Q9NWV4 (parent)
chain: MGKIALQLKATLENITNLRPVGEDFRWYLKMKCGNCGEISDKWQYIRLMDSVALKGGRGSASMVQKCKLCARENSIEILSSTIKPYNAEDNENFKTIVEFECRGLEPVDFQPQAGFAAEGVESGTAFSDINLQEKDWTDYDEKAQESVGIYEVTHQFVKC
partner: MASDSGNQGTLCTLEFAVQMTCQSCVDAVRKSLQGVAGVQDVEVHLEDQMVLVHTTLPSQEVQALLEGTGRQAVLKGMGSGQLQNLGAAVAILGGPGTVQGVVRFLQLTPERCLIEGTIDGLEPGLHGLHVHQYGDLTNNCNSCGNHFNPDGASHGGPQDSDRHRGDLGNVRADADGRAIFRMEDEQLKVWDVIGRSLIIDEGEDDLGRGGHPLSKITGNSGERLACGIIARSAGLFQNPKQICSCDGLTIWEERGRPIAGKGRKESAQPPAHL

Experiments:
ccs_human CCS, O14618 [1] = variants of: B1; details: with ccs_human CCS
ccs_human CCS, O14618 [2] = variants of: B1; details: with ccs_human CCS; remark: listed apart in the source

MGKIALQLKATLENITNLRPVGEDFRWYLKMKAGNAGEISDKWQYIRLMDSVALKGGRGSASMVQKCKLCARENSIEILSSTIKPYNAEDNENFKTIVEFECRGLEPVDFQPQAGFAAEGVESGTAFSDINLQEKDWTDYDEKAQESVGIYEVTHQFVKC [C33A;C36A]
effect of a mutation on the interaction (ccs_human CCS, O14618 [1]): with no effect | effect of a mutation on the interaction (ccs_human CCS, O14618 [2]): causing an interaction

MGKIALQLKATLENITNLRPVGEDFRWYLKMKCGNCGEISDKWQYIRLMDSVALKGGRGSASMVQKAKLAARENSIEILSSTIKPYNAEDNENFKTIVEFECRGLEPVDFQPQAGFAAEGVESGTAFSDINLQEKDWTDYDEKAQESVGIYEVTHQFVKC [C67A;C70A]
effect of a mutation on the interaction (ccs_human CCS, O14618 [1]): disrupting interaction strength | effect of a mutation on the interaction (ccs_human CCS, O14618 [2]): causing an interaction
